US20200317779A1
Where a chain is given by its changes, count along the chain named. One block for each binder: values may come before it.

How the values were obtained:
[1] = target: recombinant human CD3ε/δ heterodimer (human) (UniProt P07766); assay: ELISA, coated CD3ε/δ
[2] = target: recombinant cynomolgus monkey CD3ε/δ heterodimer (cynomolgus monkey) (UniProt Q95LI5); assay: ELISA, coated CD3ε/δ
recombinant cynomolgus monkey CD3ε/δ heterodimer (cynomolgus monkey), sequence (Q95LI5 22-117, stated change not applied, chain 1 of 2): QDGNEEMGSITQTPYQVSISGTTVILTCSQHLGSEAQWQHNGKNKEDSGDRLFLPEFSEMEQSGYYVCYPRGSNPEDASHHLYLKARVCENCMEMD
recombinant cynomolgus monkey CD3ε/δ heterodimer (cynomolgus monkey), sequence (Q95LI8 22-105, stated change not applied, chain 2 of 2, further chain): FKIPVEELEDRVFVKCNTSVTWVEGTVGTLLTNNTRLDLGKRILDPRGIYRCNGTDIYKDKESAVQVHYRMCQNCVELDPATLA

recombinant human CD3ε/δ heterodimer (human), sequence (P07766 23-126, stated change not applied, chain 1 of 2): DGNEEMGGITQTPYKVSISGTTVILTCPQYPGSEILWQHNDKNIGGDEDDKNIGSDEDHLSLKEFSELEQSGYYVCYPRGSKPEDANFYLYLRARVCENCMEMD
recombinant human CD3ε/δ heterodimer (human), sequence (P04234 22-105, stated change not applied, chain 2 of 2, further chain): as the sequence (Q95LI8 22-105, stated change not applied, chain 2 of 2, further chain) above, with V5I, K15N, V20I, T32S, N33D, N34I, A64T, N74S, L83V counted along it

B1: F08 (antibody, human IgG1, lambda, L234A L235A, V domains shown)
VH: EVQLVESGGGLVQPGGSLKLSCAASGFTFNTYAMNWVRQASGKGLEWVARIRSKYNNYATYYADSVKDRFTISRDDSKNTLYLQMNSLKTEDTAVYYCVRHGNFGNSYVSWFAYWGQGTLVTVSS
VL: QAVVTQEPSLTVSPGGTVTLTCRSSTGAVTTSNYANWFQQKPGQAPRGLIGGTNKRAPWTPARFSGSLLGDKAALTLSGAQPEDEAEYYCALWYSNLWVFGGGTKLTVLG
Absorbance (450 nm) [1]: 0.134
Absorbance (450 nm) [2]: 0.18

B3: H07 (antibody, human IgG1, lambda, L234A L235A, V domains shown)
VH: B1 VH with K78Q, N79S
VL: B1 VL with D71G
Absorbance (450 nm) [1]: 0.11
Absorbance (450 nm) [2]: 0.09

B5: G06 (antibody, human IgG1, lambda, L234A L235A, V domains shown)
VH: B1 VH with K78Q, N79S, L81A
VL: B1 VL with G51Y
Absorbance (450 nm) [1]: 0.118
Absorbance (450 nm) [2]: 0.078

B7: G09 (antibody, human IgG1, lambda, L234A L235A, V domains shown)
VH: B1 VH with K78Q, N79S, L81A
VL: B1 VL with F38V, G48T, G51Y, D71G
Absorbance (450 nm) [1]: 0.106
Absorbance (450 nm) [2]: 0.079

B9: H05 (antibody, human IgG1, lambda, L234A L235A, V domains shown)
VH: B1 VH with K78Q, N79S
VL: B1 VL with G51Y, D71G
Absorbance (450 nm) [1]: 0.078
Absorbance (450 nm) [2]: 0.061

B10: H03 (antibody, human IgG1, lambda, L234A L235A, V domains shown)
VH: B1 VH with K78Q, N79S
VL: B1 VL with G48T, D71G
Absorbance (450 nm) [1]: 0.113
Absorbance (450 nm) [2]: 0.085

B11: G01 (antibody, human IgG1, lambda, L234A L235A, V domains shown)
VH: B1 VH with K78Q, N79S, L81A
VL: B1 VL with G48T, G51Y, D71G
Absorbance (450 nm) [1]: 0.113
Absorbance (450 nm) [2]: 0.096

B15: H09 (antibody, human IgG1, lambda, L234A L235A, V domains shown)
VH: B1 VH with K78Q, N79S
VL: B1 VL with F38V, G48T, G51Y, D71G
Absorbance (450 nm) [1]: 0.141
Absorbance (450 nm) [2]: 0.113

B18: H06 (antibody, human IgG1, lambda, L234A L235A, V domains shown)
VH: B1 VH with K78Q, N79S
VL: B1 VL with G51Y
Absorbance (450 nm) [1]: 0.134
Absorbance (450 nm) [2]: 0.101

B19: G03 (antibody, human IgG1, lambda, L234A L235A, V domains shown)
VH: B1 VH with K78Q, N79S, L81A
VL: B1 VL with G48T, D71G
Absorbance (450 nm) [1]: 0.098
Absorbance (450 nm) [2]: 0.088

B20: A02 (antibody, human IgG1, lambda, L234A L235A, V domains shown)
VH: B1 VH with A49G, L81A
VL: B1 VL with G48T, G51Y
Absorbance (450 nm) [1]: 0.098
Absorbance (450 nm) [2]: 0.068

B23: H01 (antibody, human IgG1, lambda, L234A L235A, V domains shown)
VH: B1 VH with K78Q, N79S
VL: B1 VL with G48T, G51Y, D71G
Absorbance (450 nm) [1]: 0.121
Absorbance (450 nm) [2]: 0.154

B24: H04 (antibody, human IgG1, lambda, L234A L235A, V domains shown)
VH: B1 VH with K78Q, N79S
VL: B1 VL with G48T
Absorbance (450 nm) [1]: 0.077
Absorbance (450 nm) [2]: 0.068

B28: G05 (antibody, human IgG1, lambda, L234A L235A, V domains shown)
VH: B1 VH with K78Q, N79S, L81A
VL: B1 VL with G51Y, D71G
Absorbance (450 nm) [1]: 0.109
Absorbance (450 nm) [2]: 0.072

B30: G07 (antibody, human IgG1, lambda, L234A L235A, V domains shown)
VH: B1 VH with K78Q, N79S, L81A
VL: B1 VL with D71G
Absorbance (450 nm) [1]: 0.118
Absorbance (450 nm) [2]: 0.316

B34: G08 (antibody, human IgG1, lambda, L234A L235A, V domains shown)
VH: B1 VH with K78Q, N79S, L81A
VL: B1 VL
Absorbance (450 nm) [1]: 0.137
Absorbance (450 nm) [2]: 0.119

B36: G04 (antibody, human IgG1, lambda, L234A L235A, V domains shown)
VH: B1 VH with K78Q, N79S, L81A
VL: B1 VL with G48T
Absorbance (450 nm) [1]: 0.129
Absorbance (450 nm) [2]: 0.063

B37: H08 (antibody, human IgG1, lambda, L234A L235A, V domains shown)
VH: B1 VH with K78Q, N79S
VL: B1 VL
Absorbance (450 nm) [1]: 0.118
Absorbance (450 nm) [2]: 0.136

B38: G02 (antibody, human IgG1, lambda, L234A L235A, V domains shown)
VH: B1 VH with K78Q, N79S, L81A
VL: B1 VL with G48T, G51Y
Absorbance (450 nm) [1]: 0.146
Absorbance (450 nm) [2]: 0.069

B39: H02 (antibody, human IgG1, lambda, L234A L235A, V domains shown)
VH: B1 VH with K78Q, N79S
VL: B1 VL with G48T, G51Y
Absorbance (450 nm) [1]: 0.111
Absorbance (450 nm) [2]: 0.08

More lines, now with the values ahead:

Absorbance (450 nm) [1]: 0.118
Absorbance (450 nm) [2]: 0.091
B2: F10 (antibody, human IgG1, lambda, L234A L235A, V domains shown)
VH: B1 VH
VL: B1 VL with F38V, G48T, G51Y

Absorbance (450 nm) [1]: 0.099
Absorbance (450 nm) [2]: 0.079
B4: G10 (antibody, human IgG1, lambda, L234A L235A, V domains shown)
VH: B1 VH with K78Q, N79S, L81A
VL: B1 VL with F38V, G48T, G51Y

Absorbance (450 nm) [1]: 0.265
Absorbance (450 nm) [2]: 0.242
B6: G13 (antibody, human IgG1, lambda, L234A L235A, V domains shown)
VH: B1 VH with K78Q, N79S, L81A
VL: B1 VL with F38V, G51Y, D71G

Absorbance (450 nm) [1]: 0.097
Absorbance (450 nm) [2]: 0.068
B8: A12 (antibody, human IgG1, lambda, L234A L235A, V domains shown)
VH: B1 VH with A49G, L81A
VL: B1 VL with F38V, G48T

Absorbance (450 nm) [1]: 0.122
Absorbance (450 nm) [2]: 0.105
B12: A11 (antibody, human IgG1, lambda, L234A L235A, V domains shown)
VH: B1 VH with A49G, L81A
VL: B1 VL with F38V, G48T, D71G

Absorbance (450 nm) [1]: 0.125
Absorbance (450 nm) [2]: 0.113
B13: A14 (antibody, human IgG1, lambda, L234A L235A, V domains shown)
VH: B1 VH with A49G, L81A
VL: B1 VL with F38V, G51Y

Absorbance (450 nm) [1]: 0.085
Absorbance (450 nm) [2]: 0.065
B14: G12 (antibody, human IgG1, lambda, L234A L235A, V domains shown)
VH: B1 VH with K78Q, N79S, L81A
VL: B1 VL with F38V, G48T

Absorbance (450 nm) [1]: 0.175
Absorbance (450 nm) [2]: 0.196
B16: H13 (antibody, human IgG1, lambda, L234A L235A, V domains shown)
VH: B1 VH with K78Q, N79S
VL: B1 VL with F38V, G51Y, D71G

Absorbance (450 nm) [1]: 0.192
Absorbance (450 nm) [2]: 0.151
B17: F13 (antibody, human IgG1, lambda, L234A L235A, V domains shown)
VH: B1 VH
VL: B1 VL with F38V, G51Y, D71G

Absorbance (450 nm) [1]: 0.099
Absorbance (450 nm) [2]: 0.084
B21: F09 (antibody, human IgG1, lambda, L234A L235A, V domains shown)
VH: B1 VH
VL: B1 VL with F38V, G48T, G51Y, D71G

Absorbance (450 nm) [1]: 0.114
Absorbance (450 nm) [2]: 0.1
B22: F14 (antibody, human IgG1, lambda, L234A L235A, V domains shown)
VH: B1 VH
VL: B1 VL with F38V, G51Y

Absorbance (450 nm) [1]: 0.096
Absorbance (450 nm) [2]: 0.094
B25: H14 (antibody, human IgG1, lambda, L234A L235A, V domains shown)
VH: B1 VH with K78Q, N79S
VL: B1 VL with F38V, G51Y

Absorbance (450 nm) [1]: 0.105
Absorbance (450 nm) [2]: 0.099
B26: G14 (antibody, human IgG1, lambda, L234A L235A, V domains shown)
VH: B1 VH with K78Q, N79S, L81A
VL: B1 VL with F38V, G51Y

Absorbance (450 nm) [1]: 0.097
Absorbance (450 nm) [2]: 0.066
B27: A10 (antibody, human IgG1, lambda, L234A L235A, V domains shown)
VH: B1 VH with A49G, L81A
VL: B1 VL with F38V, G48T, G51Y

Absorbance (450 nm) [1]: 0.088
Absorbance (450 nm) [2]: 0.077
B29: H10 (antibody, human IgG1, lambda, L234A L235A, V domains shown)
VH: B1 VH with K78Q, N79S
VL: B1 VL with F38V, G48T, G51Y

Absorbance (450 nm) [1]: 0.138
Absorbance (450 nm) [2]: 0.104
B31: F11 (antibody, human IgG1, lambda, L234A L235A, V domains shown)
VH: B1 VH
VL: B1 VL with F38V, G48T, D71G

Absorbance (450 nm) [1]: 0.104
Absorbance (450 nm) [2]: 0.08
B32: G11 (antibody, human IgG1, lambda, L234A L235A, V domains shown)
VH: B1 VH with K78Q, N79S, L81A
VL: B1 VL with F38V, G48T, D71G

Absorbance (450 nm) [1]: 0.172
Absorbance (450 nm) [2]: 0.154
B33: A13 (antibody, human IgG1, lambda, L234A L235A, V domains shown)
VH: B1 VH with A49G, L81A
VL: B1 VL with F38V, G51Y, D71G

Absorbance (450 nm) [1]: 0.09
Absorbance (450 nm) [2]: 0.077
B35: F12 (antibody, human IgG1, lambda, L234A L235A, V domains shown)
VH: B1 VH
VL: B1 VL with F38V, G48T

Absorbance (450 nm) [1]: 0.099
Absorbance (450 nm) [2]: 0.083
B40: H12 (antibody, human IgG1, lambda, L234A L235A, V domains shown)
VH: B1 VH with K78Q, N79S
VL: B1 VL with F38V, G48T

Absorbance (450 nm) [1]: 0.122
Absorbance (450 nm) [2]: 0.142
B41: H11 (antibody, human IgG1, lambda, L234A L235A, V domains shown)
VH: B1 VH with K78Q, N79S
VL: B1 VL with F38V, G48T, D71G
